The target of assay [1] is T1, mutant feline IL-31 11E12 protein (Feline_IL31_11E12_mutant) (feline).
T1 construct: also called feline 11E12 mutant; 11E12 IL-31 mutant
T1 chain: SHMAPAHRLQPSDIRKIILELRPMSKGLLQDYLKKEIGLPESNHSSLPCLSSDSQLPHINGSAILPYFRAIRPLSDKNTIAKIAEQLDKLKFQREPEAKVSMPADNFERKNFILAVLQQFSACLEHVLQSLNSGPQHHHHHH
Briefly: indirect ELISA, feline IL-31 11E12 mutant coated. The text has this:
To determine the impact of mAbs 11E12 and 15H05 ability to bind these mutant forms of feline IL-31, an indirect ELISA was run using the mutants directly coated on to an immunoassay plate. […] When mutant 11E12 is used as a capture protein, binding of mAb 11E12 is highly attenuated and binding of mAb 15H05 is partially attenuated. […] The minor attenuation of mAb 15H05s binding to the 11E12 mutant is likely due to translational effects of the mutations from movement of the two front helices effecting the 15H05 binding site. […] Unlike the 11E12 mutant, the changes in the random coil recognized by mAb 15H05 (mutant 15H05) had no impact on mAb 11E12 binding further supporting the distinction between the two epitopes (FIG. 6C).
(In an ELISA, binding on a coated surface is turned into a signal by an enzyme label.)

Assay [2] concerns the target T2, canine IL-31 protein (Canine_IL31) (canine).
T2 chain: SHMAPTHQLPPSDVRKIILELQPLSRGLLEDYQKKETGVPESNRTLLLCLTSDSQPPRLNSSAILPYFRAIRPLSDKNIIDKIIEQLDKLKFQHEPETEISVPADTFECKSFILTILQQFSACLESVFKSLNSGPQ
Briefly: SPR (Biacore), IL-31 on chip, 1:1 fit. On the technique in general: SPR reads the build-up and loss of mass on a sensor chip optically.

In assay [3] the target is T3, wildtype feline IL-31 protein (Feline_IL31_wildtype) (feline).
T3 chain: T1 chain with A81D, A84I
Briefly: cell-based or functional assay.

Assay [4] deals with T3, wildtype feline IL-31 protein …. Briefly: SPR (Biacore), IL-31 on chip, 1:1 fit. Summed up:
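IL-31 was amine-coupled (NHS/EDC) to the chip at 5 μg/mL and quenched with ethanolamine, and candidate mAbs were flowed over it as analytes. Binding curves were fitted to a 1:1 model.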

The target of assay [5] is T2, canine IL-31 protein (Canine_IL31). Briefly: SPR (Biacore), IL-31 protein as surface capture.
Assay [6] concerns the target T3, wildtype feline IL-31 protein …. Briefly: SPR (Biacore), IL-31 protein as surface capture. As for the experimental part:
(§1) The affinity with which candidate mAbs bind canine and feline IL-31 was determined using surface plasmon resonance (SPR) on a Biacore system (Biocore Life Sciences (GE Healthcare), Uppsala, Sweden). To avoid affinity differences associated with differential surface preparation that can occur when immobilizing antibodies to surfaces; a strategy was employed where IL-31 was directly conjugated to the surface. Immobilization was obtained by amine coupling 5 μg/mL IL-31 using N-hydroxysuccinimide (NHS)/1-Ethyl-3-(3-dimethylaminopropyl) carbodiimide (EDC) chemistry. Chips were quenched with ethanolamine and the affinity with which all candidate mAbs bound to the immobilized IL-31 was evaluated. All curves were fit to a 1:1 model. […] Results for affinity measurements are described herein.
(§2) Table 1 below describes the results for biacore analysis using multiple species of IL-31 protein as a surface capture.

In assay [7] the target is T1, mutant feline IL-31 11E12 protein …. Briefly: SPR (Biacore), IL-31 protein as surface capture. The protocol:
as §1, §2

The target of assay [8] is T4, equine IL-31 protein (Equine_IL31) (equine).
T4 construct: Recombinant equine IL-31
T4 chain: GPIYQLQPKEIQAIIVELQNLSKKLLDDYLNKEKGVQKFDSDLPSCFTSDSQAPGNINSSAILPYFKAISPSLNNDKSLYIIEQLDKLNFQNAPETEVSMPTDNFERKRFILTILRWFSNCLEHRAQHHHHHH
In words: SPR (Biacore), IL-31 protein as surface capture. The protocol: as §1, §2

In assay [9] the target is T5, mutant feline IL-31 15H05 protein (Feline_IL31_15H05_mutant) (feline).
T5 construct: also called feline 15H05 mutant; 15H05 IL-31 mutant
T5 chain: T1 chain with A81D, A84I, P103A, D105A
Briefly: Biacore, IL-31 protein as surface capture. As for the experimental part:
as §1, §2

The target in assay [10] is T2, canine IL-31 protein (Canine_IL31). In words: cell-based or functional assay.
Assay [11] shares this target.
Assay [12] deals with T3, wildtype feline IL-31 protein …. Briefly: cell-based or functional assay.
For assay [13] the target is unchanged. Briefly: Biacore, feline IL-31 chip, mAb 100 nM, share of points within parent mean +/-3 SD. On the set-up: key: % of mutant data points within parent mAb mean ±3 SD. The text has this:
(§3) The mean response unit of four replicates of the parent mAb+/−3 standard deviations was used to generate parameters to define a threshold of response units comprising both the on- and off-rates antibody binding (FIG. 22). The percentage of data points for each mutant fell within this threshold was then used to define a “% similarity score” (FIG. 23).

The target is the same in assay [14]. Described as above. Also on record: key: % of mutant data points within parent mAb mean ±3 SD.
Source text: The region of an antibody responsible for antigen recognition represents the paratope. A paratope is created by a combination of amino acids in the complementarity determining regions (CDRs) of both the heavy and light chain variable regions. The binding between antibody and antigen is often mediated by side chains of CDR residues with side chains or carbohydrate moieties of the antigen. To help define critical side chains involved in antibody recognition alanine scanning mutagenesis was performed on each CDR residue in both the heavy and light chain. These mutants were then individually tested for the ability to bind feline IL-31 using the biacore and evaluated for inhibition of IL-31-mediated signaling in the FCWF-4 cell based assay.
as §3

The target is the same in assay [15]. Briefly: cell-based or functional assay.
Assay [16] has the same target. Briefly: cell-based or functional assay.
Assay [17] shares this target. In words: SPR (Biacore), IL-31 on chip. As for the experimental part:
as §1
FIG. 2 details the affinity of antibodies with CDRs derived from mouse origin using biacore. […] These observations confirm the correct sequence for both mouse antibodies and indicate conversion to the chimeric form results in antibodies with equivalent or higher affinity when compared to the mouse parent with the exception of the mouse:feline 15H05 chimera which lost some affinity to both IL-31 species as a result of its conversion to the chimeric form. […]

The results in this text go back to patent US20250136677A1 (ZOETIS SERVICES, published 2025).

The Kd is the equilibrium constant for the complex coming apart. What is called koff is a measure of how fast the partners let go of each other. By kon is commonly meant a measure of how fast the partners come together.

Positions count from the first letter of the chain named. Where two headings read alike, the source gives them in different places.

B1: mouse:feline 11E12 chimera (antibody)
heavy: QVQLQQSGAELVKPGASVKLSCKASGYTFKYYDINWVRQRPEQGLEWIGWIFPGDGGTKYNETFKGKATLTTDKSSSTAYMQLSRLTSEDSAVYFCARGGTSVIRDAMDYWGQGTSVTVSSASTTAPSVFPLAPSCGTTSGATVALACLVLGYFPEPVTVSWNSGALTSGVHTFPAVLQASGLYSLSSMVTVPSSRWLSDTFTCNVAHPPSNTKVDKTVRKTDHPPGPKPCDCPKCPPPEAAGAPSIFIFPPKPKDTLSISRTPEVTCLVVDLGPDDSDVQITWFVDNTQVYTAKTSPREEQFNSTYRVVSVLPILHQDWLKGKEFKCKVNSKSLPSPIERTISKAKGQPHEPQVYVLPPAQEELSRNKVSVTCLIKSFHPPDIAVEWEITGQPEPENNYRTTPPQLDSDGTYFVYSKLSVDRSHWQRGNTYTCSVSHEALHSHHTQKSLTQSPGK
light: DIVLTQSPASLAVSLGQRATISCRASESVDNYGISFMHWYQQKPGQPPKLLIYRASNLESGIPARFSGSGSRTDFTLTINPVETDDVATYYCQQSNKDPLTFGAGTKLELKRSDAQPSVFLFQPSLDELHTGSASIVCILNDFYPKEVNVKWKVDGVVQNKGIQESTTEQNSKDSTYSLSSTLTMSSTEYQSHEKFSCEVTHKSLASTLVKSFQRSECQRE
notes: Mouse variable regions on feline IgG constant regions; made in HEK 293 cells
As for B1, the binding result in [1] is recorded as “binds”. Further, in assay [2], the equilibrium dissociation constant (Kd) stood at 0.000127 nM, the dissociation rate constant (koff) came out at 8.7e-08 s⁻¹ and the association rate constant (kon) stood at 684000 M⁻¹ s⁻¹. In addition, in [3], the “IC50, inhibition of feline IL-31-induced STAT3 phosphorylation, canine DH82 cells” value is 4.4 µg/mL and the “IC50, inhibition of feline IL-31-induced STAT3 phosphorylation, feline FCWF4 cells” value was 3.45 µg/mL. Besides, in assay [4], the Kd was determined as 0.13 nM, the off-rate constant (koff) was 5.06e-05 s⁻¹ and the association rate constant (kon) is 388000 M⁻¹ s⁻¹.

B2: ZTS-361 (antibody)
heavy: QVLLVQSGAEVRTPGASVKIFCKASGYSFTSYTIHWLRQAPAQGLEWMGNINPTSGYTENNQRFKDRLTLTADTSTNTAYMELSSLRSADTAMYYCARWGFKYDGEWSFDVWGAGTTVTVSSASTTAPSVFPLAPSCGTTSGATVALACLVLGYFPEPVTVSWNSGALTSGVHTFPAVLQASGLYSLSSMVTVPSSRWLSDTFTCNVAHPPSNTKVDKTVRKTDHPPGPKPCDCPKCPPPEAAGAPSIFIFPPKPKDTLSISRTPEVTCLVVDLGPDDSDVQITWFVDNTQVYTAKTSPREEQFNSTYRVVSVLPILHQDWLKGKEFKCKVNSKSLPSPIERTISKAKGQPHEPQVYVLPPAQEELSRNKVSVTCLIKSFHPPDIAVEWEITGQPEPENNYRTTPPQLDSDGTYFVYSKLSVDRSHWQRGNTYTCSVSHEALHSHHTQKSLTQSPGK
light: EIQMTQSPSSLSASPGDRVTITCRASQGISIWLSWYQQKPGNIPKVLINKASNLHIGVPSRFSGSGSGTDFTLTISSLEPEDAATYYCLQSQTYPLTFGGGTKLEIKRSDAQPSVFLFQPSLDELHTGSASIVCILNDFYPKEVNVKWKVDGVVQNKGIQESTTEQNSKDSTYSLSSTLTMSSTEYQSHEKFSCEVTHKSLASTLVKSFQRSECQRE
As to B2, the dissociation constant (Kd) was found to be 0.00241 nM in assay [5]; 0.625 nM in assay [6]; 17.2 nM in assay [7]; 0.625 nM in assay [8]; 0.474 nM in assay [4]. Also, in [9], the binding result is “no binding”. The same molecule had an Inhibition of IL-31 induced pSTAT3 IC50 (µg/ml), Canine IL-31 on Canine DH82 cells in assay [10] of 23 µg/ml. In assay [11], this molecule returned an IC50, inhibition of canine IL-31-induced STAT3 phosphorylation, feline FCWF4 cells of 38.8 µg/mL. The “Inhibition of IL-31 induced pSTAT3 IC50 (µg/ml), Feline IL-31 on Feline FCWF-4 cells” value in [12] came out at 8.85 µg/ml. The same molecule yielded a koff in [4] of 2.18e-05 s⁻¹. Besides, the association rate constant (kon) in assay [4] worked out at 46000 M⁻¹ s⁻¹.

B3: ZTS-1505 (antibody)
heavy: B2 heavy
light: EIQMTQSPSSLSASPGDRVTITCRASQGISIWLSWYQQKPGNIPKVLINKASNLHIGVPSRFSGSGSGTDFTLTISSLEPEDAATYYCLQSQTYPLTFGGGTKLEIKRSDAQPSVFLFQPSLDELHTGSASIVCILNDFYPKEVNVKWKVDGVVQNKGIQESTTEQNSKDSTYSLSSTLTMSSTEYQSHEKFSCEVTHKSLASTLVKSFQRSEC
Take B3: the Kd in assay [5] came out at 0.00183 nM; in assay [6], 0.575 nM; in assay [7], 19.5 nM; in [8] it was 0.575 nM. Moreover, the “Binding Similarity score” value in assay [13] and in assay [14] was 97 each time. Moreover, in [9], the binding result is given as “no binding”. Further, the Inhibition of IL-31 induced pSTAT3 IC50 (µg/ml), Canine IL-31 on Canine DH82 cells in assay [10] is 21.8 µg/ml. Further, in assay [12], the “Inhibition of IL-31 induced pSTAT3 IC50 (µg/ml), Feline IL-31 on Feline FCWF-4 cells” value worked out at 4.53 µg/ml. Moreover, the “% Inhibition Relative to Parent (pSTAT, FCWF-4 cells)” value in [15] and in assay [16] was 100% in each case.

B4: Feline 11E12 1.2 (antibody, V domains shown)
VH: QVLLVQSGAEVKKPGASVKIFCKASGYSFTYYDINWLRQAPEQGLEWMGWIFPGDGGTKYNETFKGRLTLTADTSTNTVYMELSSLRSADTAMYYCARGGTSVIRDAMDYWGQGALVTVSS
VL: EVVLTQSSAFLSRTLKEKATITCRASESVDNYGISFMHWYQQKPNQAPKLLVKRASNLESGAPSRFSGSGSGTDFTLTISSPEPEDAATYYCQQSNKDPLTFGQGT
notes: Feline heavy and kappa constant regions; also called felinized 11E12 1.2
Turning to B4, the binding result in [17] is on record as “no binding”. In assay [3], the “IC50, inhibition of feline IL-31-induced STAT3 phosphorylation, canine DH82 cells” value is more than 100 µg/mL and the “IC50, inhibition of feline IL-31-induced STAT3 phosphorylation, feline FCWF4 cells” value was more than 100 µg/mL.
